According to the supplement of paper PMC12042874:
± gives the uncertainty stated by the source.

Assay: amyloid nucleation score (Sup35N fusion, yeast selection) (log enrichment); library NNK1; higher = more nucleation; inactive = no reads after selection
Summary of the method: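 The nucleation score is the DiMSum log enrichment of output over input reads, centred on the mode score of non-aggregating sequences. Only sequences with 100 or more input reads were scored, using Illumina sequencing of input and output plasmid inserts. Psi-negative yeast expressing Sup35N fused to peptides of 20 random codons were induced 24 hours with 100 μM copper sulfate and grown 7 days at 30°C on medium lacking adenine and uracil.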

Substance | amyloid nucleation score
IMCIHSFCFCLRPSHLIVGG | 0.774 ± 0.41
NYFAIPCFESWSWRMYKVGF | 0.186 ± 0.9
SVYVLSRGAVSMSVWHR | 3.64 ± 0.15
RMSNDITNFSFTIVTM | 3.86 ± 0.08
SRLVRSSLHMGAKTRVIQL | 0.881 ± 0.26
QSTVTCRFMCVVWGSNW | -0.078 ± 0.47
KSLVKYKWNLTFILY | inactive
LTNATFQLWLLCCDGPLRDM | 5.87 ± 0.062
TFSFARLRDLKWVMPRVRRS | 0.27 ± 0.44
ISWSASLDIDINCQCRGLWG | 3.35 ± 0.1
VLMQVSTLAAWDSKRDMTSC | 0.528 ± 0.35
PTIKRGTVGFNWVGRACSGK | -0.529 ± 0.57
SVVRNEIYRYYKCSKTVSIW | -0.513 ± 0.33
KIFERRLSMYRSVSFLSRQC | 0.15 ± 0.32
VGVSAVSTNSSVSKIFGTSW | 0.746 ± 0.85
LKYKKLPFIKRDEKFPTNRN | 0.398 ± 0.54
TKSMFGTCNMFKTKVLN | -0.101 ± 0.49
DAALVIYLL | -0.6 ± 0.52
CSDSVGSIYSHVRSGGLE | inactive
RLCQVDEAASTESRKAKWGR | 0.075 ± 0.35
MTYDGCNSCKHLKSGKLRWC | 0.117 ± 0.29
LIVNLKICAVHVGYHWGWRA | 0.653 ± 0.29
GLRQYF | -0.317 ± 0.84
RSVMCGWDHPRDRVGAPEWL | 0.439 ± 0.71
LYACNFFVFISRPAGMDSAS | 5.29 ± 0.079

Substance | amyloid nucleation score
NKIGRAFVTSYGLRIHSGAG | -0.32 ± 0.76
ALHCQPVGH | -0.006 ± 0.32
LLNGEQLQSSDNIRLWIAFR | 0.151 ± 0.41
SCQSALLRILGSRVSFQARA | -0.192 ± 0.49
CRSHRGHMCSLVSYLAHGSS | inactive
LPIVGFSCFEFIMIERMRLV | inactive
LLYGA | -0.727 ± 1.4
MMFSRILCNGDPQGSARWLS | inactive
VNRALAFNCWSALILGNAVV | -0.608 ± 0.31
ASLAIGFSIKSHYVMCRVYP | 0.42 ± 0.35
SPLFPRKLQVQYKTYPYG | inactive
GWNVTEIYFFMWVRITSGWM | 2.27 ± 0.19
AVELAKSPLWIPKLGYVMNQ | 0.233 ± 0.48
VVRFCYTEEVRVFNQASLRE | 0.134 ± 0.5
GCIECEGAGCAPIYGVEWLD | 0.122 ± 0.84
INDYMLYGVLAYILGHGTVQ | 0.622 ± 0.49
VIRFSGVLCMIDL | 5.09 ± 0.071
VQFGQIIEWVFHMLVSTTTI | -0.022 ± 0.36
RSESNVMS | 0.397 ± 0.71
QCCLNVLDC | 7.65 ± 0.084
LVFSRFLGSVLVNEPSEATR | 0.203 ± 1.5
RCKGNGKNISCSPFQSREWY | 0.026 ± 0.33
WFGLTALGDTFYGLYFCKKL | -0.848 ± 0.78
VDLTLPASAVGNELCAREVG | 0.155 ± 0.34
AFGMIVLGRSTNGGYCTDGN | 2.83 ± 0.16

Substance | amyloid nucleation score
SFVRGFYVNFRFSKGILDMF | -0.082 ± 0.32
GYHSKFRWVLLFVVTSASGE | inactive
WTAFGRFAVQTFFEKHM | -0.275 ± 0.24
NWFLYWT | 3.77 ± 0.11
MKRASSLMINFMMPCNFYCG | 0.532 ± 0.62
HPMITRFLAD | 0.413 ± 1.4
KTRSNMNFHCS | 0.195 ± 0.6
LMGECGLSFLTPY | 0.275 ± 0.84
SCNWDRNVLDMFFLN | inactive
CLVERATITHFASCVEAYFY | -0.224 ± 1.4
GELLTLHITGLNEVLVNTSM | -0.21 ± 0.31
QSGAVTSSVRPQRVEVVRVV | -0.904 ± 0.88
YYESRNWSILFRLINMF | -0.078 ± 0.46
SCLWSSCCVV | 0.171 ± 0.44
VSKSFVSQARLFYIQGDHCL | 1.42 ± 0.73
LELTC | 1.6 ± 0.53
CYSMNEFFGNLHVSTRTHGK | -0.944 ± 0.66
GYHSMLSLDDQIFVKLHDAK | 0.135 ± 1.2
MFRNI | 0.227 ± 0.26
SIDTPYFALNRCALIHTSFT | 0.825 ± 0.52
YVESGTFTDPRFWVSFAVCF | 0.791 ± 0.54
SVMGVSWFLFLDYGDSINFR | 0.521 ± 0.36
FYITQTEGQLLLCR | -0.148 ± 0.55
WGRNMKYVRTGVGLINDLVR | inactive
FAEENTSKFFSRKGEVCYMF | -0.113 ± 0.9

Substance | amyloid nucleation score
MYRYLPNSTLLSRVLDTSSY | inactive
KRSKN | 1.37 ± 0.8
LGSWARD | -0.27 ± 0.54
VTNVSLDCGALCSCELCKKS | 7.155 ± 0.063
GENPGQDYASGFLNVFKNYL | 1.01 ± 0.54
NCGTVHGHADGSYVCDMGSR | -0.022 ± 0.98
VESLDKIPMR | 0.173 ± 0.73
RRGSCLRFKV | 0.859 ± 0.97
IYCHWNGFRGPYVIPRGCVV | 0.819 ± 0.51
ISLAVWGFSILLRIADCSMI | 0.123 ± 1.2
GFVMKLLL | 1.35 ± 0.21
TGYWKSFSSAF | 0.072 ± 0.93
LVFTMWLPKRDACPDLTTMM | 0.34 ± 0.47
KFSSKFTSG | 0.436 ± 0.37
QLVYCCLLILIYTYEC | 0.499 ± 0.42
LNSLPLSTVLYSFRVMYWMY | inactive
NSGESLS | -0.186 ± 0.85
TDDATNVRKGAHS | 0.602 ± 0.6
THSRFKVCPVSMLCNAPQQR | 0.626 ± 1.2
VMLVVMGLFELFWLSNVV | inactive
LAVDMQRF | 0.224 ± 1.4
WMKVARMYRMESRIMNRRQW | 1.13 ± 0.84
LKCFLINVMLLEMLPFWDRS | 1.62 ± 0.55
ICFRIIVAIVQRV | 1.14 ± 0.38
KSGVRYNRGRKYASTQ | -0.302 ± 0.39

Substance | amyloid nucleation score
HVYLTWTGLVGLKWCSGCSA | -0.856 ± 2.4
LYRVSLLGRGGNSMMCDMWL | inactive
ISFPSSDYGGGSAPVEGWLG | 0.47 ± 1.2
GVNCKYVVLKNNVIWTHCLR | 6.453 ± 0.05
DSVYRLFICIVISALTGWWK | 0.258 ± 0.62
IIFCMVFDSVSDDVLYITSK | -0.941 ± 0.99
ASRMFMSFLYYSMLLWLLNV | -1.66 ± 0.85
SLCGTS | -0.222 ± 0.46
CTPALLGLAIIQQGNTWLGI | 2.63 ± 0.079
GLTINNSI | 0.588 ± 0.38
RCSLIPGRLPRNRFVRPDYC | -1.53 ± 1.3
ADRKSFLQSCGLCE | -0.661 ± 0.32
ISGNRSKVWNDGWIRPRYLC | 0.679 ± 0.84
RQSRVQGMYHY | 1.28 ± 0.48
LICLGRPTSNTELGMNDINF | -0.349 ± 0.84
GRREMEGTHIKKICRGGRTR | 1.53 ± 0.73
SLFKNR | 0.171 ± 0.61
TMGLSLYGV | -0.174 ± 0.51
FSPRIALVFRKYQGMASQPP | 4.45 ± 0.061
VMKDTQLLCNFRVSRVLMFE | inactive
CLGHISVMNVTASNANYHFS | 7.237 ± 0.053
YLSFSSAHDDIEWVGISCR | inactive
VNRYFVFVSVMIYMLCESRF | 0.295 ± 0.75
PLPPLVMLPQ | -0.481 ± 0.8
ESIVRFKSSRSDKI | 2.86 ± 0.075

Substance | amyloid nucleation score
DCRQTAKHFPETSDNLYRLT | -0.2 ± 0.28
TEDVKAVKVLGLTLGVQVIT | -0.657 ± 0.38
VRSFLPMYMF | -0.376 ± 1.7
KIRVILYVPRVS | 1.76 ± 0.51
WMFIFRLTSTLYYHCC | inactive
TNISQGRCKVECLPITSIYG | 0.247 ± 0.75
RKSLTGYKYCMKWGTIVAPN | 0.745 ± 0.59
SIANNKRTKTVGLMLSCRSS | 3.79 ± 0.14
MTWMPFGPHTAGMMGHLYFG | -0.398 ± 0.64
RLMSNYHEGAAHKGGKHMPW | -0.495 ± 0.65
YSLNFYAMPRSSI | 3.76 ± 0.1
RACVNSHQRMGGDGSLSMVL | 2.48 ± 0.15
CSCVVVNCNWYG | 8.609 ± 0.071
FVCWVGTGLMIRVAIDQCWR | -0.202 ± 0.31
YLGWDRNRDYEWAIDASRAN | inactive
SIDRIRVSVHPLAFKIYLDV | 0.497 ± 0.43
KRVIAMLTLIFG | 0.534 ± 0.64
DLPWSMLKVL | 0.689 ± 1.2
NLLLIMDFVGWV | 1.48 ± 0.56
SFKPSSFKFTIT | -0.605 ± 0.41
AVCVMWANGLVYMTSLECER | -0.679 ± 0.35
GRVLDGRILLPVILSVWGCS | -0.563 ± 1.1
QISNRYPLVRPTLLFCGFPF | -0.224 ± 0.4
LFSLNTLCM | 0.985 ± 0.51
YVVCKGIRSSSWDSWVSKR | -0.393 ± 0.28

Substance | amyloid nucleation score
LVWSGLHVGGHSWVGFTGVV | 0.241 ± 0.61
DNGGFDPWWCWNRLRWWRGG | 0.248 ± 0.38
FLILLGLVEDGTLYAVRTVG | -0.849 ± 0.8
PALWDLCVPKLIVANLIERS | -1.1 ± 1.4
NMVSLMVDSELTFVSLICLE | 3.18 ± 0.064
LFLKFGGSFAVIFWILVAAV | 0.74 ± 0.48
SNFHRNVYRGYRV | inactive
VYLACVSSPCLKS | -0.2 ± 0.79
TSKDEFKFEYRNEKVNQ | 1.75 ± 0.21
SGYMWMFMSHRNEFRTEVRW | 0.385 ± 0.37
FCGAVVFNVVWCYWNKIAVL | 1.79 ± 0.12
KLDVSLKKYLD | 0.368 ± 0.31
PCYRLWLVSAWAVTQEFTSW | 1.35 ± 0.14
LRCVLQSRRWEIGMLRLTER | -0.267 ± 0.35
SMFNQRWWVSPVVYGLIVWP | 1.33 ± 0.79
MRISFAITCTVTN | 0.248 ± 0.28
MAVYFLGFIA | 0.604 ± 0.59
DTLLKF | 0.916 ± 0.74
GVLVKNQGLLVNAIHSMQTN | -0.797 ± 2.4
FNVGLPLAGIISTKTD | -1.83 ± 2.7
